# Laboratory results reported in paper PMC10786891, “Massively parallel profiling of RNA-targeting CRISPR-Cas13d”.
# Residue numbers refer to the chain shown, from its start. In names and notes the source's numbering stands.
# T1: EsCas13d, nuclease-dead (Eubacterium siraeum, UniProt B0MS50, R295A;H300A;R849A;H854A)
# T1 sequence: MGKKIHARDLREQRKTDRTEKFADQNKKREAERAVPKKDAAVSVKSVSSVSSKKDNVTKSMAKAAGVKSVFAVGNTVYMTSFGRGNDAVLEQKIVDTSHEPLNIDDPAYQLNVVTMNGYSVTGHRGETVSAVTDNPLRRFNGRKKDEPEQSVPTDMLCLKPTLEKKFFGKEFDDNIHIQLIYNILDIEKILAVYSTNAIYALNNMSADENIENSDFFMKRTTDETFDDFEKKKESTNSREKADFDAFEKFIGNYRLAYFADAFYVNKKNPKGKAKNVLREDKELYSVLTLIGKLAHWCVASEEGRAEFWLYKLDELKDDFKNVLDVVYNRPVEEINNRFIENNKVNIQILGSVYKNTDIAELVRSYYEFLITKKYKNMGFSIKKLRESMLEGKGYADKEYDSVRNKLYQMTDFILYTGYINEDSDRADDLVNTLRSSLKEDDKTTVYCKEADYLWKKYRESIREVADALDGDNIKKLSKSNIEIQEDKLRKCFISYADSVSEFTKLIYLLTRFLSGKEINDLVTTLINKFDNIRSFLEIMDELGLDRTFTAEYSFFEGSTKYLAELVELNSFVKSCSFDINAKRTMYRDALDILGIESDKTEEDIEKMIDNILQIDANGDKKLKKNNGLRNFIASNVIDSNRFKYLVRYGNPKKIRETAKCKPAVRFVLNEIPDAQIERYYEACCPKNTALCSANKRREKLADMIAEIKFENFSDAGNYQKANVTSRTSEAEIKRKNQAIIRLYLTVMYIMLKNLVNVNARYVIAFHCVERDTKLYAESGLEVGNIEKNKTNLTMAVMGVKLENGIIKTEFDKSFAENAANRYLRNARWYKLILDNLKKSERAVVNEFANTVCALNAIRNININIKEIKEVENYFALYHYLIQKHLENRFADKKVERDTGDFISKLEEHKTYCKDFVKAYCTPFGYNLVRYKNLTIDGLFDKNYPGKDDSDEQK
# B1: target 1 insC 3' of 13,insC 3' of 11 (mixed)
# RNA 1: CACCCGUGCAAAAAUGCAGGGGUCUAAAACUGAGCGGAUAACCUCUCUAUGG
# RNA 2: GGGAAUGGAUCCACAUCUACGAAUUCGUACCAUAGAGAGCGUCUAUCCGCUCACCGAGAUCGGAAGAGCACACGU
# B2: target 1 insC 3' of 17,insA 3' of 12 (mixed)
# RNA 1: B1 RNA 1
# RNA 2: B1 RNA 2 with A36C, G37A, A38G, G39A, C40G, U42A, C43U
# B3: target 1 del1,del3 (mixed)
# RNA 1: B1 RNA 1
# RNA 2: GGGAAUGGAUCCACAUCUACGAAUUCGUACCAUAGAGAGGUUAUCCGCCCCGAGAUCGGAAGAGCACACGU
# B4: target 1 del3,del4 (mixed)
# RNA 1: B1 RNA 1
# RNA 2: B3 RNA 2 with C49A
# B5: target 1 insU 3' of 17,insA 3' of 17 (mixed)
# RNA 1: B1 RNA 1
# RNA 2: B1 RNA 2 with A36U, G37A, C40A, U42G, C43U
# B6: target 1 insA 3' of 13,insA 3' of 12 (mixed)
# RNA 1: B1 RNA 1
# RNA 2: B1 RNA 2 with C40A, U42A, C43U
# B7: target 1 C7U,C21U (mixed)
# RNA 1: B1 RNA 1
# RNA 2: GGGAAUGGAUCCACAUCUACGAAUUCGUACUAUAGAGAGGUUAUUCGCUCACCGAGAUCGGAAGAGCACACGU
# B8: target 1 insA 3' of 13,insU 3' of 12 (mixed)
# RNA 1: B1 RNA 1
# RNA 2: B1 RNA 2 with C40A, C43U
# B9: target 1 A1G,A18G (mixed)
# RNA 1: B1 RNA 1
# RNA 2: B7 RNA 2 with U31C, A34G, U45C, A51G
# B10: target 1 insG 3' of 11,insA 3' of 3 (mixed)
# RNA 1: B1 RNA 1
# RNA 2: GGGAAUGGAUCCACAUCUACGAAUUCGUACCAUAGAGAGGUGUAUCCGCUACACCGAGAUCGGAAGAGCACACGU
# B11: target 1 C6U,G15U (mixed)
# RNA 1: B1 RNA 1
# RNA 2: B7 RNA 2 with U31C, G37U, U45C, C46U
# B12: target 1 C4U,G12U (mixed)
# RNA 1: B1 RNA 1
# RNA 2: B7 RNA 2 with U31C, G40U, U45C, C48U
# B13: target 1 G12A,G15U (mixed)
# RNA 1: B1 RNA 1
# RNA 2: B7 RNA 2 with U31C, G37U, G40A, U45C
# B14: target 1 insA 3' of 12,insG 3' of 3 (mixed)
# RNA 1: B1 RNA 1
# RNA 2: B10 RNA 2 with U41A, G42U, A51G
# B15: target 1 G5C,G15C (mixed)
# RNA 1: B1 RNA 1
# RNA 2: B7 RNA 2 with U31C, G37C, U45C, G47C
# B16: target 1 C4A,C22A (mixed)
# RNA 1: B1 RNA 1
# RNA 2: B7 RNA 2 with C30A, U31C, U45C, C48A
# B17: target 1 insA 3' of 15,insA 3' of 4 (mixed)
# RNA 1: B1 RNA 1
# RNA 2: B10 RNA 2 with G39A, U41G, G42U, U50A, A51U
# B18: target 1 C2A,U10A (mixed)
# RNA 1: B1 RNA 1
# RNA 2: B7 RNA 2 with U31C, U42A, U45C, C50A
# B19: target 1 C2A,U19G (mixed)
# RNA 1: B1 RNA 1
# RNA 2: B7 RNA 2 with U31C, U33G, U45C, C50A
# B20: target 1 U8C,U11A (mixed)
# RNA 1: B1 RNA 1
# RNA 2: B7 RNA 2 with U31C, U41A, U44C, U45C
# B21: target 1 U10G,U11A (mixed)
# RNA 1: B1 RNA 1
# RNA 2: B7 RNA 2 with U31C, U41A, U42G, U45C
# B22: target 1 U8G,G17U (mixed)
# RNA 1: B1 RNA 1
# RNA 2: B7 RNA 2 with U31C, G35U, U44G, U45C
# B23: target 1 insA 3' of 21,insG 3' of 20 (mixed)
# RNA 1: B1 RNA 1
# RNA 2: B1 RNA 2 with U33A, A34G, G35U, C40A, U42G, C43U
# B24: target 1 C2G,G15U (mixed)
# RNA 1: B1 RNA 1
# RNA 2: B7 RNA 2 with U31C, G37U, U45C, C50G
# B25: target 1 C7A,U8C (mixed)
# RNA 1: B1 RNA 1
# RNA 2: B7 RNA 2 with U31C, U44C, U45A
# B26: target 1 insG 3' of 18,insA 3' of 4 (mixed)
# RNA 1: B1 RNA 1
# RNA 2: B10 RNA 2 with A36G, G37A, A38G, G39A, U41G, G42U, U50A, A51U
# B27: target 1 insG 3' of 14,insG 3' of 3 (mixed)
# RNA 1: B1 RNA 1
# RNA 2: B10 RNA 2 with U41G, G42U, A51G
# B28: target 1 insU 3' of 18,insU 3' of 5 (mixed)
# RNA 1: B1 RNA 1
# RNA 2: GGGAAUGGAUCCACAUCUACGAAUUCGUACCAUAUGAGAGGUUAUCCGUCUCACCGAGAUCGGAAGAGCACACGU
# B29: target 1 A9C,A18U (mixed)
# RNA 1: B1 RNA 1
# RNA 2: B7 RNA 2 with U31C, A34U, A43C, U45C
# B30: target 1 insC 3' of 10,insA 3' of 3 (mixed)
# RNA 1: B1 RNA 1
# RNA 2: B10 RNA 2 with G42U, U43C
# B31: target 1 insC 3' of 17,insU 3' of 13 (mixed)
# RNA 1: B1 RNA 1
# RNA 2: B1 RNA 2 with A36C, G37A, A38G, G39A, C40G, G41U, U42G, C43U
# B32: target 1 insG 3' of 10,insG 3' of 3 (mixed)
# RNA 1: B1 RNA 1
# RNA 2: B10 RNA 2 with G42U, U43G, A51G
# B33: target 1 U10C,U11C (mixed)
# RNA 1: B1 RNA 1
# RNA 2: B7 RNA 2 with U31C, U41C, U42C, U45C
# B34: target 1 insU 3' of 14,insC 3' of 12 (mixed)
# RNA 1: B1 RNA 1
# RNA 2: B1 RNA 2 with G39U, C40G, U42C, C43U
# B35: target 1 C2U,A18C (mixed)
# RNA 1: B1 RNA 1
# RNA 2: B7 RNA 2 with U31C, A34C, U45C, C50U
# Target: T1, EsCas13d, nuclease-dead
# Assay: crRNA (strand 1, pre-loaded); Mg2+; 40 mM Tris-HCl pH 7.5, 150 mM NaCl, 6 mM MgCl2, 1 mM DTT, 0.1% Tween-20, 0.2 mg/ml BSA; 25 C; 10 min per concentration, then washed
# Details: tags: His6-TwinStrep-SUMO cleaved; N-terminal SNAP kept (SNAP-Surface 488); label: 3' end held by stalled T7 RNA polymerase
row,Binder,Kd
1,B1,14.2 ± 1 nM
2,B2,32.9 ± 2.7 nM
3,B3,45 ± 13 nM
4,B4,14.4 ± 1.2 nM
5,B5,30.5 ± 2.2 nM
6,B6,11.8 ± 0.8 nM
7,B7,6 ± 0.4 nM
8,B8,4.2 ± 0.5 nM
9,B9,74 ± 21 nM
10,B10,17.5 ± 1.2 nM
11,B11,32.9 ± 1.9 nM
12,B12,36 ± 8 nM
13,B13,18.7 ± 2.5 nM
14,B14,18.7 ± 1.6 nM
15,B15,38 ± 5 nM
16,B16,5.7 ± 0.8 nM
17,B17,7.7 ± 0.9 nM
18,B18,13.9 ± 0.8 nM

row,Binder,Kd
1,B19,48 ± 5 nM
2,B20,32.5 ± 3.2 nM
3,B21,12.9 ± 1 nM
4,B22,91 ± 14 nM
5,B23,24 ± 4 nM
6,B24,33 ± 13 nM
7,B25,9 ± 0.4 nM
8,B26,43 ± 5 nM
9,B27,7.9 ± 0.4 nM
10,B28,48 ± 5 nM
11,B29,63 ± 10 nM
12,B30,12.9 ± 0.6 nM
13,B31,80 ± 40 nM
14,B32,28.4 ± 2.8 nM
15,B33,24.7 ± 2.9 nM
16,B34,50 ± 10 nM
17,B35,48.9 ± 2.9 nM
